# B1: Organic anion transporter 3 (Homo sapiens) (protein)
# chain: MTFSEILDRVGSMGHFQFLHVAILGLPILNMANHNLLQIFTAATPVHHCRPPHNASTGPWVLPMGPNGKPERCLRFVHPPNASLPNDTQRAMEPCLDGWVYNSTKDSIVTEWDLVCNSNKLKEMAQSIFMAGILIGGLVLGDLSDRFGRRPILTCSYLLLAASGSGAAFSPTFPIYMVFRFLCGFGISGITLSTVILNVEWVPTRMRAIMSTALGYCYTFGQFILPGLAYAIPQWRWLQLTVSIPFFVFFLSSWWTPESIRWLVLSGKSSKALKILRRVAVFNGKKEEGERLSLEELKLNLQKEISLAKAKYTASDLFRIPMLRRMTFCLSLAWFATGFAYYSLAMGVEEFGVNLYILQIIFGGVDVPAKFITILSLSYLGRHTTQAAALLLAGGAILALTFVPLDLQTVRTVLAVFGKGCLSSSFSCLFLYTSELYPTVIRQTGMGVSNLWTRVGSMVSPLVKITGEVQPFIPNIIYGITALLGGSAALFLPETLNQPLPETIEDLENWSLRAKKPKQEPEVEKASQRIPLQPHGPGLGSS
# Assays:
# [1] = substrate: CNC(=C[N+](=O)[O-])NCCSCc1ccc(CN(C)C)o1; test: TP_TRANSPORTER: cell accumulation in hOAT3 expressing HEK cells; format: functional, cell-based, HEK293
# not read [2] = substrate: NC(N)=Nc1nc(CSCCC(N)=NS(N)(=O)=O)cs1; test: not read
# not read [3] = substrate: CN/C(=N/CCSCc1nc[nH]c1C)NC#N; test: not read
protein,measurement,setting,value
B1,Km,[1],234 µM
same,Km,not read [2],124 µM
same,Km,not read [3],149 µM
